Measurements from the nanobody polyreactivity screen of Harvey et al. (2022).

test: yeast display, Sf9 membrane polyspecificity reagent, FACS + sequencing; frameworks hold sequencing errors
Outline: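 In a synthetic yeast display library (Saccharomyces cerevisiae BJ5465), nanobody expression was induced with galactose for 36–48 hours. FACS gates were set low and high (top ~1%) using anti-HA fluorescence for expression and streptavidin fluorescence for binding of the Sf9 membrane reagent. Each polyreactivity label is drawn from the gate of origin.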

Sequence	polyreactivity (PSR sort gate)
QVQLVESGGGLVQAGGSLRLSCAASGNIFYGYAMGWYRQAPGKERELVAAITSDGITYYADSVKGRFTISRDNAKNTVYLQMNSLKPEDTAVYYCNVTQLYEYYKYYYWGQGTQVTVSS	low polyreactivity
QVELVESGGGLVQAGGSLRLSCAASGRIFSPNAMGWYRQAPGKERELVAALTGSGGTTYYADSVKGRFKISRDNAKNTVYLQMNSLKREDTAVYYCAADLYPFSRNPRYQFLYNYWGQGTQVTVSS	low polyreactivity
QFQLVESGGGLVQSGGSLRLSCAASGLIFVFYAMGWYRQAPGKERELVAAISTSGDRTYYADSVKGRFTISRDNAKNTVYLQMNSLKPEDTAVYYCAAGRRKVPYSREYYYWGQGTQVTVSS	high polyreactivity
QVQLVESGGGLVQAGGSLRLSCAASGNIFSDYTMGWYRQAPGKERELVAAISGDGGTTYYADSVKGRFTISRDNAKNTVYLQMNSLKPEDTAVYYCAADGYYDAYDQFFIVYYEYDYWGQGTQVTVSS	low polyreactivity
QVQLVESGGGLVQAGGSLRLSCAASGIIFGWYAMGWYRQAPGKERELVAAITWSGASTYYADSVKGRFTISRDNAKNTVYLQMNSLKPEDTAVYYCAAESVDNIYYGFDYWGQGTQVTVSS	high polyreactivity
QVQLEESGRGLVQAGGSLRLSCAASGSTSGIYAMGWYRQAPGKERELVAAITWSGGSTNYADSVKGRFTISRDNAKNTVYLQMNSLKPVDTAVYYCAAEFYSYKYPDFDYWGQGTQVTVSS	low polyreactivity
QVQLVESGGGLVQAGGSLRLSCAASGFIFTGYAMGWYRQAPGKERELVAAISSSGGRTYYADSVKGRFTISRDNAKNTVYLQMNSLKPEDTAVYYCAAYYITFIGRGYGYWGQGTQVTVSS	high polyreactivity
QVQLVESGGGLVQAGGSLRLSCAASGLTFYQYAMGWYRQAPGKERELVAAISKSAGSTYYADSVKGSFTISRDNAKNTVYLQMNSLKPEDTAVYFCAARVLRLRYDYWGQGTQVTVSS	high polyreactivity
QVQLVESGGGLVQAGGSLRLSCAASGITFQKYVMGWYRQAPGKEREFVAAITARGGTTYYADSVKGRFTISRDNAKNTVYLQMNSLKPEDTAVYYCAADLRRFQSYYYWGQGTQVTVSS	high polyreactivity
QVQLVESGGGLVQAGGSLRLSCAASGRTFHGYAMGWYRQAPGKERELVAAINASGGRTYYADSVKGRFTISRDNAKNTVYLQMNRLKPEDTAVYYCAVYSASFRYGLAYDYWGQGTQVTVSS	high polyreactivity
QVQLVESGGGLVQAGGSLRLSCAASGSTFRKYAMGWYRQAPGKEREFVAAITWSTGTTYYADSVKGRFTISRDNAKNTVYLQMNSLKPEDTAVYYCAADSQPPHELYESIEHESWGQGTQVTVSS	low polyreactivity
QVQLVESGGGLVQAGGSLRLSCAASGSIFRSYAMGWYRQAPGKERELVAAIRGGGSTNYADSVKGRFTISRDNAKNTVYLQMNSLKPEDTAVYYFAADKKTKVDWGQGTQVTVSS	high polyreactivity
QVQLVESGGGLVQAGGSLRLSCAASGSIFPENAMGWYRQAPGKERELVAAITSSDSSTYYADSVKGRFTISRDNAKNTVYLHMNSLKPEDTAVYSCAAYRVGFRFREYYWGQGTQVTVSS	low polyreactivity
QVQLVESGGGLVQAGGSLRLSCAASGSTFYKYTMGWYRQAPGKERELVAAISGSGTTTYYADSVKGRFTISRDNAKNTVYLQMNSLKPEDTAVYYCAARRFSPGSSGHGYWGQGTQVTVSS	high polyreactivity
QVQLVESGGGLVQAGGSLRLSCAASGSTFRAYAMGWYRQAPGKERELVAAISKRGGSTYYADSVKGRFTISRDNAKYTVYLQMNSLKPEDTAVYYCNAATRSPFDYWGQGTQVTVSS	high polyreactivity
QVQLVESGGGLVQAGGSLRLSCAASGRIFLSNAMGWYRQAPGKERELVAAISWTGGSTYYADSVKGRFTISRDNAKNTVYLQMNSLKPEDTAVYYCAASTVGQTYSDYVDTYDYWGQGTQVTVSS	low polyreactivity
QVQLVESGGGLVQAGGSLRLSCAASGSIFIPYAMGWYRQAPGKETELVAAISSSGSSYYADSVKGRFTISRDNAKNTVYLQMNSLKPEDTAVYYCAAERHYSYSSYDYWGQGTQVTVSS	low polyreactivity
QDQLVESGGGLVQAGGSLRLSCADYGNLVYNAKGWSRQAPGKERELVAAISARGGRTYYADSVKGRFTISRDNAKNTVYLQMNSLNPEDTAVYYCAARSYRLDSYYWGQGTQVSVSS	high polyreactivity
QVQLVESGGGLVQAGGSLRLSCAASGLIFLEYAMGWYRQAPGKEREMVAAISTSGGSTYYADSVKGRFTISRDNAKNTVYLQLNSLTPEDTAVYYCAADPVYNYYFDDGDYWGQGTQVTVSS	low polyreactivity
QVQLVESGGGLVQAGGSLRLSCAASGSTIHINAMGWYRQAPGKERELVADINWSGGSTYYADSVKGRFTISRDNAKNTVYLQMNSLKPADSAVYYCAADVGVFTYSPYDAGEHDYWGQGSQVTVSS	low polyreactivity
QVQLVESGGGLVQAGGSLSLTCAASGRTFESNAMGWYRQAPGKERELVAVITSGGITNYTDSVKGRFTISRDNAKNTVYLQLNSLKPVDTAVYYCEFYYWGQGTQVTVSS	low polyreactivity
QVQLEDSGGGLVQAGGSLRLICAASGSIIGTKAMGWYRQAPGKERELVAAIHWSGGTTYYADSVKGRFTISRDNAKNTVYFQMNSLKPDDTPVYDCATVFFVLPPTRFDAWGQGTLVTVSS	low polyreactivity

Sequence	polyreactivity (PSR sort gate)
QVQLVEAGGGLVQAGGSLRLSCAASGRIFYSNAMGWCRQAPGKERELVAAITWRGGSTYYADSVKGRFTISRDNAKNTVYLQMNSLKPEDTAVYYCATDGYDDTHYYYLGQGTQVTVSS	low polyreactivity
QVQLVESGGGLVQAGGRLRLSCAASGIISSAYAIGWYRQAPGKERELVAAISSGGSTKYADSVKGRFTISRDNAKNTVYLQMNSLKPEDTAVYYCAARTRYPYKVFGYWGQGTQVTVSS	high polyreactivity
QVQLVESGGGLVQAGGSLRLSCGAYGRIFLFYDMGWYRQEPGKVRELVATISFRGGSTYYADSVKGRFTISRDNAKNTVYLQMNRLKPEDTAVYYCAKQNKRGYSTSAYYSWGQGTQVTVSS	low polyreactivity
QVQLVESGGGLVQAGGSLRLSCAASGSIFVSYAMGWYRQAPGKERELVAAITVSGGSTYYADSVKGRFTISRDNAKNTVYLQMNSMKPEDTAVYYCAADSWDDWVVEFYYWGQGTQVTVSS	low polyreactivity
QVQLVESGGGLVQAGGSLRLSCAASGITFFPYAMGWYRQAPGKERELVASISDGGGTNYAASVKGRFTISRDNAKNTVYLQMNSLKPEDTAVYYCATDASTYAYYGGDYWGQGTQVTVSS	low polyreactivity
QVQLVESGGGLVQAGGSLRLSCPASGSIIYTNDMGWYRQEPGKEREMVAAISYGGTTTYADSVKGRFTISRDNAKNTVYLQMNSLKPEDTAVYYCNADWLYYGYWGYGHIWYDFWGQGTQVTVSS	low polyreactivity
QVQLVESGGGLVQAGGSLRLSCAASGSIFPRNAMGWYRQAPGKERELVAGISSGGSTNYADSVKGRFTISRDNAKNTVYLQMNSLNPEDTAVYYCAARQWIRNLGFGYSIYNYWGQGTQVTVSS	high polyreactivity
QVQLHESGVGLVQAGGGLRLSCAATGSISSTGFMGWYRQAPGKEREPVAAIAPGTTTYYADSVKGRFTISRDNAKNTVYLQMNSLRPEDTAVYYCAVFTDNRVAFLYWGQGTQVTVSS	low polyreactivity
QVQLVESGGGLVQAGGSLRLSCAASGRIFSKNVRGWYRQAPGKERELVADISNTGRTYYADSVKGRFKISRDNAKNTVYLQMNSLKPEDTAVYYCAADIAYRYFAVEFSSYTGDYWGQGTQVTVSS	low polyreactivity
QVQLVESGGGLVQAGGSLRLSCAASGSISRLYAMRWYRQAPGKERELVARITSSGGRTYYADSVKGRFTISRDNAKNTVYLQMHSLKPEDTAVYYCAARGYVSVWRPYHWFVAGDYWGQGTQVTVSS	high polyreactivity
QVQLVESGGGLVQAGGSLRLSCAASGSIFPGYAMGWYRQAPGKERELVAAIDRSGGSTYYADSVKGRFTISRDNAKNTVYLQMNSLKPEDTAVYYCNRVFTWRYGYRYEYWGQGTQVTVSS	high polyreactivity
QVQLVESGGGLVQAGGSLRLSCAASGLIFRTYTMGWYRQAPGKERELVATITRRGGTTYYADSVKGRFTISRDNAKNTVYLQMNSLKPEDTAVYYCAKSPYYTWKYDYWGQGTQVTVSS	high polyreactivity
QVQLVESGGGLVQAGGSLRLSCAASGLTLSGNAMGWYRQAPGKERELVAAITGRGGSTTYADSVKGRFTISRDNAKNTVYLLMNSLKPEDTAVYYCAADGRWYWDYEYWGQGTQVTVSS	low polyreactivity
QDQLVESGGGLVQAGGSLRLSCAASGSTISGSAMGWYRQAPGKVRELVATMSRGGSTTYADSVKGRFTISRDNAKNTVYLQMNSLKPEDTAVYYCAAQTYVWWVKYHSGGQGTQVTVSS	low polyreactivity
QVQLVESGGGLVQAGGSLRLSCAASGFTFNYYAMGWYRQAPGKERELVAAISGRGGSTYYADSVKGRFTISRDNAKNTVYLQMNSLKPEDTAVYYCAADYWYDYYSTEYDYWGQGTQVTVSS	low polyreactivity
QVQHVESGGGLVQAGGSLRLSCAASGRTFIINTMGWYRQAPGKERELVAAISKFGATTNYADSVKGRFTISRDNAKNTVYLQMNSLKPEDTAVYYCNARYSGYLRLDYWGQGTQVTVSS	low polyreactivity
QVQLVESGGGLVQAGGSLRLSCAASGRTYGNYAMGWSRPAPGKERELVAGITYRSGRTYYADSVKGRFTISRDNAKITFYLQMNSLKPEDTAVYYCAAASYYLTPKHDYWGQGTQVTVSW	high polyreactivity
QVQLVESGGGLVQAGGSLRLSCAASGFIFYRYALGWYRQAPGKERELVAAISRSGGSTYYADSVKVRFTISRDNAKNTVYLQMNSLKPEDTAVYYCAVTGYWYYHDHYSYPSRYYYWGQGTQVTVSS	high polyreactivity
QVQLVESGGGLVQAGGSLRLSCAASGRIFERNAMGWYRQAPGKERELVAAITYNGGRTYYAVSVKGRFTISRDNAKNTVYLQINSQKPEDTAVYYYNAQSRVTRSSYRGSPRYDYWGQGTQVTVSS	high polyreactivity
QVQLVESGGGLVQAGGSLRLSCAASGSIFFPNAMGWYRQAPGKERELVAAINWSGDSTYYADSVKGRFTISRDNAKNTVYLQMNSLKPEDTAVYYCNATYPWFDYDYWGQGTQVTVSS	low polyreactivity
QVQIVESRGGLVQAGGSLRLSCAASGRILYLYAMGWYRQAPGKERELVARISQRDGSTYYADSVKGRFTISRDNAKNNDYLHMNSLKPEDTAVYYCNAVFSRGSYGYSYDYWGQGTQVTVSS	low polyreactivity
